Paper doi:10.1101/695502 (bioRxiv, 2019)
Where two headings read alike, the source gives them in different places. Blank lines part the entries; values can stand above or below the molecule they belong to.

Assays:
[1] = target: bacterially produced mm PCDH15 EC9-MAD12 (Mus musculus); experiment: SEC-SAXS
[2] = target: hs PCDH15 EC1-3 G16D/N369D/Q370N (Homo sapiens)
[3] = target: mm PCDH15 EC1-MAD12 CD1-1 (Mus musculus); experiment: SEC-MALS
[4] = target: mm PCDH15 EC1-MAD12 CD1-1 (Mus musculus); experiment: SEC-MALS; remark: listed apart in the source
[5] = target: mm PCDH15 EC9-MAD12 (mammalian-expressed, glycosylated) (Mus musculus); experiment: SEC-MALS
AUC = target: the molecule itself; experiment: AUC

Molecule: bacterially produced mm PCDH15 EC9-MAD12 (domain or fragment)
stoichiometry N [1]: 2

Molecule: mm PCDH15 EC9-MAD12 (mammalian-expressed, glycosylated) (domain or fragment)
stoichiometry N [5]: 2

B1: hs PCDH15 EC2-3 WT (domain or fragment, Homo sapiens)
chain: NSPTFKHESYYATVNELTPVGTTIFTGFSGDNGATDIDDGPNGQIEYVIQYNPDDPTSNDTFEIPLMLTGNIVLRKRLNYEDKTRYFVIIQANDRAQNLNERRTTTTTLTVDVLDGDDLGPMFLPCVLVPNTRDCRPLTYQAAIPELRTPEELNPIIVTPPIQAIDQDRNIQPPSDRPGILYSILVGTPEDYPRFFHMHPRTAELSLLEPVNRDFHQKFDLVIKAEQDNGHPLPAFAGLHIEILDENN
Kd (AUC): < 1000 nM
stoichiometry N (AUC): 2

Second part, the molecule after the results:

stoichiometry N [2]: 2
Molecule: hs PCDH15 EC1-3 G16D/N369D/Q370N (domain or fragment)

stoichiometry N [3]: 2
stoichiometry N [4]: 2
Molecule: mm PCDH15 EC1-MAD12 CD1-1 (domain or fragment)
